# Assay results published in publication PMC6555819, “Comprehensive study of nuclear receptor DNA binding provides a revised framework for understanding receptor specificity”.
# B1: NRC3_wobSeed29_DR1_T20C_o1 (dsDNA)
# DNA 1: GCGCTTACGGGTCAAAGGTCATAGCATGAATAGAATGCGATTGACAGCGTAGAATGAAGG
# DNA 2: CCTTCATTCTACGCTGTCAATCGCATTCTATTCATGCTATGACCTTTGACCCGTAAGCGC
# B2: NRC3_wobSeed109_DR4_C7A_o1 (dsDNA)
# DNA 1: GCCGTCAAAGGTCATAGGAGGTCAGTGAAGACAGATGCGATTGACAGCGTAGAATGAAGG
# DNA 2: CCTTCATTCTACGCTGTCAATCGCATCTGTCTTCACTGACCTCCTATGACCTTTGACGGC
# B3: NRC3_wobSeed77_DR3_C8G_o1 (dsDNA)
# DNA 1: GCACTTAGGGGTCAACGAGGTTATAGCACGCGTATAGCGATTGACAGCGTAGAATGAAGG
# DNA 2: CCTTCATTCTACGCTGTCAATCGCTATACGCGTGCTATAACCTCGTTGACCCCTAAGTGC
# B4: NRC3_wobSeed1_DR0_T8G_o1 (dsDNA)
# DNA 1: GCCAAACGAGGTCAAGGTCAAAGTCGGTTTGTGCCAGCGATTGACAGCGTAGAATGAAGG
# DNA 2: CCTTCATTCTACGCTGTCAATCGCTGGCACAAACCGACTTTGACCTTGACCTCGTTTGGC
# B5: NRC3_random_hg19_355_o1 (dsDNA)
# DNA 1: GCTCACCGTGTTAGCCAGGATGGTCTCAATCTCCTGGCGATTGACAGCGTAGAATGAAGG
# DNA 2: CCTTCATTCTACGCTGTCAATCGCCAGGAGATTGAGACCATCCTGGCTAACACGGTGAGC
# B6: NRC3_random_hg19_204_o1 (dsDNA)
# DNA 1: GCGCCTGCATCTCCACATCCATGGAGTCCTGCTGAGGCGATTGACAGCGTAGAATGAAGG
# DNA 2: CCTTCATTCTACGCTGTCAATCGCCTCAGCAGGACTCCATGGATGTGGAGATGCAGGCGC
# B7: NRC3_wobSeed37_DR1_G22T_o1 (dsDNA)
# DNA 1: GCCGTCCAAGGTCAAAGGTCATTGAAGAGATGACGGGCGATTGACAGCGTAGAATGAAGG
# DNA 2: CCTTCATTCTACGCTGTCAATCGCCCGTCATCTCTTCAATGACCTTTGACCTTGGACGGC
# B8: NRC3_wobSeed99_DR4_A12T_o1 (dsDNA)
# DNA 1: GCTCTCGGAGGTCACGAAAGGTCAGAGCTCGACATCGCGATTGACAGCGTAGAATGAAGG
# DNA 2: CCTTCATTCTACGCTGTCAATCGCGATGTCGAGCTCTGACCTTTCGTGACCTCCGAGAGC
# B9: NRC3_wobSeed74_DR3_T9A_o1 (dsDNA)
# DNA 1: GCTCTAGTAGGTCACGGAGGTCACACACGACGGGTAGCGATTGACAGCGTAGAATGAAGG
# DNA 2: CCTTCATTCTACGCTGTCAATCGCTACCCGTCGTGTGTGACCTCCGTGACCTACTAGAGC
# B10: NRC3_random_hg19_478_o1 (dsDNA)
# DNA 1: GCATCAGCCATTTGGTATGCAAGTAGATTAGAAGCCGCGATTGACAGCGTAGAATGAAGG
# DNA 2: CCTTCATTCTACGCTGTCAATCGCGGCTTCTAATCTACTTGCATACCAAATGGCTGATGC
# B11: NRC3_random_hg19_67_o1 (dsDNA)
# DNA 1: GCCTGGCTGGGCATGGTGGCTCATGCCTGTAATCCCGCGATTGACAGCGTAGAATGAAGG
# DNA 2: CCTTCATTCTACGCTGTCAATCGCGGGATTACAGGCATGAGCCACCATGCCCAGCCAGGC
# Biological target: RXRa (Homo sapiens, UniProt P19793)
# Experiment: no ligand; PBM; 180 nM; PBS pH 7.4, 2% milk, 0.02% Triton X-100, 1 mM DTT, BSA, 0.4 mg/ml salmon testes DNA
# Details: tags: His cleaved; chain copies: 2; label: surface-attached array probe
row,Binder,binding signal
1,B1,10.8 PBM z-score against 500 random probes
2,B2,8.51 PBM z-score against 500 random probes
3,B3,9.89 PBM z-score against 500 random probes
4,B4,8.3 PBM z-score against 500 random probes
5,B5,-0.34 PBM z-score against 500 random probes
6,B6,-0.59 PBM z-score against 500 random probes
7,B7,11.1 PBM z-score against 500 random probes
8,B8,8.83 PBM z-score against 500 random probes

# Biological target: THRa:RXRa (Homo sapiens, UniProt P10827;P19793 full;full)
# Experiment: no ligand; PBM; 90 nM : 90 nM RXRa; PBS pH 7.4, 2% milk, 0.02% Triton X-100, 1 mM DTT, BSA, 0.4 mg/ml salmon testes DNA
# Details: tags: His kept;His cleaved; copies: 1;1; label: surface-attached array probe
# THRa:RXRa, sequence (P10827 other isoform, or with tags, fused parts or gaps, chain 1 of 2): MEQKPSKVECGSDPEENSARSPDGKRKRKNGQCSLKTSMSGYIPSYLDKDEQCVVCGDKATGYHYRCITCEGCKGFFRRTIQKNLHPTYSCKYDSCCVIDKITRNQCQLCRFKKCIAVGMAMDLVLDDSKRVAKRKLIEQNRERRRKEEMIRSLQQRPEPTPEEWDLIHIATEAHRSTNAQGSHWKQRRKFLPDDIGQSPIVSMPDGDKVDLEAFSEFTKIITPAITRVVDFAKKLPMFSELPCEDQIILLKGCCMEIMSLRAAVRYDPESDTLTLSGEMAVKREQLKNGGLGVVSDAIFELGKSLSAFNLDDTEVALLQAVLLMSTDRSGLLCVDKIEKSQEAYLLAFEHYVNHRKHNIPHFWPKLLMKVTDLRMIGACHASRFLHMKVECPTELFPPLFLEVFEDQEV
# THRa:RXRa, sequence (P19793 whole entry, chain 2 of 2): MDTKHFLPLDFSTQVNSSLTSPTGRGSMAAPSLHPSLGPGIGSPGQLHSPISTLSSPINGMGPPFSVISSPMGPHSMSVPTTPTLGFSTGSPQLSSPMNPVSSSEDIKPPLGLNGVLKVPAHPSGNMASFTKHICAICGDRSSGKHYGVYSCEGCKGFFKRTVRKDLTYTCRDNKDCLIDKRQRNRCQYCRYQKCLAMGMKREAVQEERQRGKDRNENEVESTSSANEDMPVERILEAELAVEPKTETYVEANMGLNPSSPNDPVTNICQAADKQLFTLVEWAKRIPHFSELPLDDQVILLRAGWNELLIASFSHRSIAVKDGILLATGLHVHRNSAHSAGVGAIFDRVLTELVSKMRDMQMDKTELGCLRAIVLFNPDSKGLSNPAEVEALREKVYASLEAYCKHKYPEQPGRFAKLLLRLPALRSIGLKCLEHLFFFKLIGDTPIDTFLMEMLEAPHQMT
row,Binder,binding signal
1,B1,4.82 PBM z-score against 500 random probes
2,B2,5.57 PBM z-score against 500 random probes
3,B3,4.82 PBM z-score against 500 random probes
4,B9,4.93 PBM z-score against 500 random probes
5,B10,-0.66 PBM z-score against 500 random probes
6,B4,4.94 PBM z-score against 500 random probes
7,B5,-0.48 PBM z-score against 500 random probes
8,B6,-0.86 PBM z-score against 500 random probes
9,B7,5.12 PBM z-score against 500 random probes
10,B8,5.45 PBM z-score against 500 random probes
11,B11,-0.95 PBM z-score against 500 random probes

# Biological target: PPARg:RXRa (Homo sapiens, UniProt P37231;P19793 full;full)
# Experiment: no ligand; PBM; 180 nM : 90 nM RXRa; PBS pH 7.4, 2% milk, 0.02% Triton X-100, 1 mM DTT, BSA, 0.4 mg/ml salmon testes DNA
# Details: tags: His kept;His cleaved; copies: 1;1; label: surface-attached array probe
# PPARg:RXRa, sequence (P37231 29-505, chain 1 of 2): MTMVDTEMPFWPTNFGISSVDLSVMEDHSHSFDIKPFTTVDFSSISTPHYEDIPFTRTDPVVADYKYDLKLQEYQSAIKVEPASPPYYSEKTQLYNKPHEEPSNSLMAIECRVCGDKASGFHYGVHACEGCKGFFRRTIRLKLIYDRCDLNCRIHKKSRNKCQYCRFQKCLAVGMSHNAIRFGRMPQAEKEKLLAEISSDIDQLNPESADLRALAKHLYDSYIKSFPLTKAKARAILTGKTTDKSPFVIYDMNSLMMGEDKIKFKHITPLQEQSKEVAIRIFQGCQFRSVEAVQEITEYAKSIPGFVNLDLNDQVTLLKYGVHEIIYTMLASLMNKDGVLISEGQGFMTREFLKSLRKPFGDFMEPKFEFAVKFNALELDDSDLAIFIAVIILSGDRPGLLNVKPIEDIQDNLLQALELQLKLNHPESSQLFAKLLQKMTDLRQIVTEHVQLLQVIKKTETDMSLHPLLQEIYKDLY
# PPARg:RXRa, sequence (P19793 whole entry, chain 2 of 2): as the sequence (P19793 whole entry, chain 2 of 2) above
row,Binder,binding signal
1,B1,13.1 PBM z-score against 500 random probes
2,B9,9.93 PBM z-score against 500 random probes
3,B10,0.2 PBM z-score against 500 random probes
4,B5,-0.61 PBM z-score against 500 random probes
5,B6,0.07 PBM z-score against 500 random probes
6,B7,12.1 PBM z-score against 500 random probes
7,B11,-1.37 PBM z-score against 500 random probes

# Biological target: RARb:RXRa (Homo sapiens, UniProt P10826;P19793 full;full)
# Experiment: no ligand; PBM; 270 nM : 90 nM RXRa; PBS pH 7.4, 2% milk, 0.02% Triton X-100, 1 mM DTT, BSA, 0.4 mg/ml salmon testes DNA
# Details: tags: His kept;His cleaved; copies: 1;1; label: surface-attached array probe
# Summary of the method: (§1)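 Antibodies against each partner of ligand-free nuclear receptor dimers (one per run) detected binding on custom Agilent 4×180K protein-binding microarrays after 1 h incubation. The double-stranded probes had 34-nt variable regions carrying direct-repeat seeds, single-nucleotide variants, half-site ablations and random human genomic background sequences. Binding z-scores, from regression-normalized fluorescence, use the random background probes as reference.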
row,Binder,binding signal
1,B1,5.71 PBM z-score against 500 random probes
2,B2,6.2 PBM z-score against 500 random probes
3,B3,5.68 PBM z-score against 500 random probes
4,B9,5.43 PBM z-score against 500 random probes
5,B4,5.8 PBM z-score against 500 random probes
6,B8,6.17 PBM z-score against 500 random probes

# Biological target: VDR:RXRa (Homo sapiens, UniProt P11473;P19793 full;full)
# Experiment: as above
# Details: tags: His kept;His cleaved; copies: 1;1; label: surface-attached array probe
# Summary of the method: as §1
# VDR:RXRa, sequence (P11473 whole entry, chain 1 of 2): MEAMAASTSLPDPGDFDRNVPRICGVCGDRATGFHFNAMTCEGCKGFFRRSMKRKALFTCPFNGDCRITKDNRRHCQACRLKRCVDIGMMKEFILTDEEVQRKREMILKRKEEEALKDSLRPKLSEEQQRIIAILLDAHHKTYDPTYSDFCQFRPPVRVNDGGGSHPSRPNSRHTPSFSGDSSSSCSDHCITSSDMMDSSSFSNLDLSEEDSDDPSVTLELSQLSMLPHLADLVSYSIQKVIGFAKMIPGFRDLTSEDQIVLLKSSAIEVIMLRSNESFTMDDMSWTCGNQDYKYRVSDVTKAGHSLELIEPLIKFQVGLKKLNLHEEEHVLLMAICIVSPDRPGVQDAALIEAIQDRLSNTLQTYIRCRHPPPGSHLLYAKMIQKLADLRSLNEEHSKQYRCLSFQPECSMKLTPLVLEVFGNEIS
# VDR:RXRa, sequence (P19793 whole entry, chain 2 of 2): as the sequence (P19793 whole entry, chain 2 of 2) above
row,Binder,binding signal
1,B1,7.18 PBM z-score against 500 random probes
2,B2,7.29 PBM z-score against 500 random probes
3,B3,8.74 PBM z-score against 500 random probes
4,B9,7.91 PBM z-score against 500 random probes
5,B4,6.53 PBM z-score against 500 random probes
6,B7,7.41 PBM z-score against 500 random probes
7,B8,6.9 PBM z-score against 500 random probes

# Biological target: LXRa:RXRa (Homo sapiens, UniProt Q13133;P19793 full;full)
# Experiment: as above
# Details: tags: His kept;His cleaved; copies: 1;1; label: surface-attached array probe
# Summary of the method: as §1
row,Binder,binding signal
1,B1,7.26 PBM z-score against 500 random probes
2,B2,8.48 PBM z-score against 500 random probes
3,B3,7.15 PBM z-score against 500 random probes
4,B10,-0.84 PBM z-score against 500 random probes
5,B4,6.82 PBM z-score against 500 random probes
6,B7,7.79 PBM z-score against 500 random probes
7,B8,8.32 PBM z-score against 500 random probes

# Biological target: PPARa:RXRa (Homo sapiens, UniProt Q07869;P19793 full;full)
# Experiment: as above
# Details: tags: GST kept;His cleaved; copies: 1;1; label: surface-attached array probe
# Summary of the method: as §1
# PPARa:RXRa, sequence (Q07869 whole entry, chain 1 of 2): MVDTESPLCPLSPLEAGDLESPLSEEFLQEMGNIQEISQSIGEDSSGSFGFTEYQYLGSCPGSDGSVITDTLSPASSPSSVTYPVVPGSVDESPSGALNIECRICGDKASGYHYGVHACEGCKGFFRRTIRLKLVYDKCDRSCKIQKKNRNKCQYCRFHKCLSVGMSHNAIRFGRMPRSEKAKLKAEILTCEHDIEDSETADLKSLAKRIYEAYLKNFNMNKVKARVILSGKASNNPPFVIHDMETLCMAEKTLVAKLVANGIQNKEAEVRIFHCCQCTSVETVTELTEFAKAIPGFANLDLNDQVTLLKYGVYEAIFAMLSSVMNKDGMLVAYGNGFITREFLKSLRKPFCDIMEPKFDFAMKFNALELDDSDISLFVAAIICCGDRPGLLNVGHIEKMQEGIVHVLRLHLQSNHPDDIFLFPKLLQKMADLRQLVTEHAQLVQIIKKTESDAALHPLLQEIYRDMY
# PPARa:RXRa, sequence (P19793 whole entry, chain 2 of 2): as the sequence (P19793 whole entry, chain 2 of 2) above
row,Binder,binding signal
1,B1,7.49 PBM z-score against 500 random probes
2,B2,7.01 PBM z-score against 500 random probes
3,B3,7.03 PBM z-score against 500 random probes
4,B10,-0.63 PBM z-score against 500 random probes
5,B4,6.72 PBM z-score against 500 random probes
6,B5,0.1 PBM z-score against 500 random probes
7,B8,6.75 PBM z-score against 500 random probes

# Biological target: LXRb:RXRa (Homo sapiens, UniProt P55055;P19793 full;full)
# Experiment: as above
# Details: tags: His kept;His cleaved; copies: 1;1; label: surface-attached array probe
# Summary of the method: as §1
# LXRb:RXRa, sequence (P55055 whole entry, chain 1 of 2): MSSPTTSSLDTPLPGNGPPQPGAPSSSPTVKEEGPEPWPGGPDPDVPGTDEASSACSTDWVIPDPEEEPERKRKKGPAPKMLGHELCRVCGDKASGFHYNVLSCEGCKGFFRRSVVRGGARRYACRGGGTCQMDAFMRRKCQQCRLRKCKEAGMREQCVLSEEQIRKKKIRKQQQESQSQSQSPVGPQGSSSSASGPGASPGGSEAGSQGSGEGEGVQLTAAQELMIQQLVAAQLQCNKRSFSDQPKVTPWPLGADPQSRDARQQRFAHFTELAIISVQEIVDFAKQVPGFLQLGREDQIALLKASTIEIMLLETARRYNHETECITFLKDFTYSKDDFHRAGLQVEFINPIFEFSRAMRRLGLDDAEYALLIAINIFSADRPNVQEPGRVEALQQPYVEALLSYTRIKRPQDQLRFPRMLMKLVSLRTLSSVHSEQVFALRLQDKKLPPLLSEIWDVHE
# LXRb:RXRa, sequence (P19793 whole entry, chain 2 of 2): as the sequence (P19793 whole entry, chain 2 of 2) above
row,Binder,binding signal
1,B1,7.5 PBM z-score against 500 random probes
2,B2,7.17 PBM z-score against 500 random probes
3,B3,6.91 PBM z-score against 500 random probes
4,B4,6.16 PBM z-score against 500 random probes
5,B7,7.46 PBM z-score against 500 random probes
6,B8,7.35 PBM z-score against 500 random probes

# Biological target: FXR:RXRa (Homo sapiens, UniProt Q96RI1;P19793 full;full)
# Experiment: as above
# Details: tags: His kept;His cleaved; copies: 1;1; label: surface-attached array probe
# Summary of the method: as §1
row,Binder,binding signal
1,B1,8.57 PBM z-score against 500 random probes
2,B2,8.92 PBM z-score against 500 random probes
3,B3,9.08 PBM z-score against 500 random probes
4,B4,8.73 PBM z-score against 500 random probes
5,B7,8.93 PBM z-score against 500 random probes
6,B8,8.33 PBM z-score against 500 random probes

# Biological target: PXR:RXRa (Homo sapiens, UniProt O75469;P19793 full;full)
# Experiment: as above
# Details: tags: His kept;His cleaved; copies: 1;1; label: surface-attached array probe
# Summary of the method: as §1
row,Binder,binding signal
1,B1,7.5 PBM z-score against 500 random probes
2,B2,7.51 PBM z-score against 500 random probes
3,B3,7.16 PBM z-score against 500 random probes
4,B9,6.39 PBM z-score against 500 random probes
5,B4,6.83 PBM z-score against 500 random probes
6,B6,-0.93 PBM z-score against 500 random probes
7,B7,7.7 PBM z-score against 500 random probes
8,B8,7.53 PBM z-score against 500 random probes

# Biological target: RARa:RXRa (Homo sapiens, UniProt P10276;P19793 full;full)
# Experiment: as above
# Details: tags: His kept;His cleaved; copies: 1;1; label: surface-attached array probe
# Summary of the method: as §1
row,Binder,binding signal
1,B1,9.33 PBM z-score against 500 random probes
2,B2,7.3 PBM z-score against 500 random probes
3,B3,7.93 PBM z-score against 500 random probes
4,B9,7.07 PBM z-score against 500 random probes
5,B10,-0.34 PBM z-score against 500 random probes
6,B4,7.18 PBM z-score against 500 random probes
7,B5,-0.62 PBM z-score against 500 random probes
8,B6,-0.76 PBM z-score against 500 random probes
9,B7,9.26 PBM z-score against 500 random probes
10,B8,7.86 PBM z-score against 500 random probes
11,B11,-0.94 PBM z-score against 500 random probes

# Biological target: RARg:RXRa (Homo sapiens, UniProt P13631;P19793 full;full)
# Experiment: as above
# Details: tags: His kept;His cleaved; copies: 1;1; label: surface-attached array probe
# Summary of the method: as §1
row,Binder,binding signal
1,B1,9.01 PBM z-score against 500 random probes
2,B2,8.29 PBM z-score against 500 random probes
3,B3,8.09 PBM z-score against 500 random probes
4,B4,7.53 PBM z-score against 500 random probes
5,B7,9.4 PBM z-score against 500 random probes
6,B8,8.59 PBM z-score against 500 random probes
